Results on one molecule are retold here after publication PMC3072266.

The data set addresses 3AB wild type (poliovirus type 1 (Mahoney), UniProt P03300 1457-1565). The data set can be described thus: EMSA.

3AB wild type, sequence (P03300 1457-1565): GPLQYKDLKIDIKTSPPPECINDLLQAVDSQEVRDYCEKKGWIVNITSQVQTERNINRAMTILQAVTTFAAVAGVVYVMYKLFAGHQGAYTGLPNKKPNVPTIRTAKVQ

For the molecule GAGUGCACCAUAUGCCAUUCAGGCUACGCAACUGUUGGGA (ssRNA) [40-mer RNA], the binding result is listed as “binds”.
